The record followed here is patent US12214076B2, “Drug delivery vehicles for atherosclerosis nanomedicine” (Northwestern University, priority 2019, dated 2025).

Data set [1] deals with LDLR KO mice. Nature of the data set: Atherosclerosis treatment study. It is filed as in vivo, mouse. To be noted: both sexes, twice per week over eight weeks, percent of atherosclerosis in the aortic root. Here is the method: Mouse model of atherosclerosis: To study atherosclerosis, the LDLR KO mouse was used. LDLR KO mice are fed a high fat “western” diet (Teklad TD.88137) starting at 4 weeks of age. This diet consists of 20% fat, 0.2% cholesterol, and 34% high sucrose. LDLR KO mice fed this diet typically develop severe hypercholesterolemia (>800 mg/dL) and hypertriglyceridemia (>300 mg/dL) after only 2 weeks. By 12 weeks on the high fat diet, atherosclerotic lesions are detected in the aortic root and aortic arch on cryosections stained with Oil Red O (Sigma). Atherosclerosis was quantified in the aortic root as a percentage of the aortic root by taking the atherosclerotic area divided by the total aortic root area. Measurements were made with ImageJ software. All protocols for the animal model and procedures in this manuscript were approved by Northwestern University's Institutional Animal Care and Use Committee.
Blood samples were collected at the end of the treatment study for toxicology analysis. Mice were euthanized three days after their 16th treatment.
Tissue processing and imaging: Mice were sacrificed and euthanized under inhaled isoflurane anesthesia by diaphragm disruption and exsanguination. Phlebotomy was performed through direct right ventricular cardiac puncture using a 1 mL syringe and 25 G needle. Perfusion was performed through left ventricular cardiac puncture with 10 mL PBS and 10 mL 10% sucrose solution. The lungs, liver, spleen, kidney, aortic root, aortic arch, and descending aorta were harvested and stored in 10% sucrose for 20 minutes. Organs and vessels were then flash-frozen in Optimal Cutting Temperature embedding medium 4583 (Tissue-Tek®) with liquid nitrogen. Frozen specimens were stored at −80° C. and cryosectioned at […]. Confocal microscopy was performed on a Nikon AIR microscope. Two sets of images were acquired with a 10× Plan Fluor NA 0.3 objective. PAs were identified through quantification of the Alexa Fluor® 546 conjugated dye with 561 nm excitation and a 600/50 nm emission filter.
Images were acquired with spectral detection and spectrally unmixed to accurately separate green autofluorescence from the red Alexa Fluor® 546 signal. Brightfield and fluorescent microscopy were performed using a Zeiss Axio Imager.A2 microscope with AxioVision software (release 4.8.2, 06-2010). All confocal and fluorescent sections were mounted with ProGold Diamond mounting media (Sigma). Slides were stained with Oil Red O to image and quantify atherosclerosis under brightfield microscopy. The elastic laminae were identified using the green fluorescent protein (GFP) filter with an exposure time of 3500 ms under 5× magnification. Nanofibers were identified in the aortic root by presence of Alexa Fluor® 546 on the Cy3 filter under 5-10× magnification, and in the internal organs under 20× magnification. Fluorescent pixel quantification in the aortic root and within organs was performed with ImageJ software.
Statistics: The effect of treatments and sex on atherosclerosis progression in mice was analyzed using one- or two-factor analysis of variance (ANOVA) followed by a post-hoc student's t-test. The toxicological effects of treatments were also analyzed using two-factor ANOVA and a post-hoc student's t-test. Toxicological effects of treatments on liver proteins AST, ALT, and ALP were further analyzed using ordinal logistic regression models of likelihood ratio tests, followed by a post-hoc Wald test

Data set [2] can be described thus: TEM nanofiber length of ApoA1-Ac2-26 PA co-assemblies. The data set is classed as physicochemical. Conditions: aged at least 24 hours at 4° C.
Method: TEM: Conventional TEM images were taken on a FEI Tecnai T-12 TEM at 80 kV with a Gatan Orius® 2 k×2 k CCD camera. PAs at 1 mM in phosphate buffered saline (PBS) were prepared for TEM by pipetting 8 μL atop copper supports that were covered with thin carbon foil 400-mesh and treated with glow discharge. After two minutes, samples were rinsed with deionized water and stained with 2% uranyl acetate for two minutes before imaging. PA nanofiber length was quantified manually using Fiji open source image processing software.
Data set [3] is described as follows: Nile Red assay, critical aggregation concentration. It is filed as physicochemical. Conditions: PBS, aged 24 hours at 4° C. Here is the method: Nile Red assay: The critical aggregation concentration (CAC) for PA nanofibers was determined by diluting the PAs in Nile Red solution. Nile Red undergoes a blue shift in fluorescence as the hydrophobic character of PAs in the solvent increases, with a corresponding increase in fluorescence intensity due to reduced twisted intramolecular charge transfer. 10% MMP- and ROS-Ac2-26 PAs were diluted from 1 mM to 100 nM in PBS containing of 2.5 μM Nile Red and aged for 24 hours at 4° C. The PAs were aliquoted in triplicate onto a 96-well plate, excited at 550 nm, and the fluorescence read from […]. The CAC was determined by plotting the log of the concentration with the corresponding maximum fluorescence intensity, and calculating the concentration at the intersection of the baseline and tangent line to the rising curve.

For data set [4], the system named is J774.2 macrophage. Nature of the data set: Cytocompatibility, MUSE Count and Viability Assay (Example 2). Conditions: 24 hours of treatment, 32 μM Ac2-26. It is filed as cell-based, mouse. As for the experimental part:
Macrophage culture and characterization: J774.2 murine macrophages (Sigma-Aldrich) were expanded at 4-9×10^5 cells/mL in growth media consisting of Dulbecco's Modified Eagle's Medium (Sigma-Aldrich) containing 4.5 g/L glucose, 2 mM L-glutamine, 10% v/v FBS, 100 U/m penicillin, and 100 μg/mL streptomycin. Cells were passaged using Accutase™ (StemCell Technologies) and used at passage 6-9 for all experiments. The cells were detached with Accutase™ and gentle scraping, counted, and re-suspended in flow cytometry buffer containing 2% w/v bovine serum albumin (BSA, heat shock fraction free of proteases, globulin, and fatty acids, Sigma-Aldrich) and 0.1% w/v sodium azide (Sigma-Aldrich). To minimize non-specific binding of immunoglobin to Fc receptors, macrophages were incubated with anti-mouse CD16/32 antibody (TrueStain FcX™, Biolegend) at 1 μg/1×10^5 cells for 10 minutes at 4° C. […] All samples were analyzed using Attune NxT Acoustic Focusing Cytometer (Thermo Fisher) with at least 2000 events counted per condition.
Cytocompatibility: Macrophages were seeded at 2.1×10^5 cells/cm^2 on 24 well plates and treated with 32 μM of Ac2-26 or 320 μM PA co-assemblies (final Ac2-26 concentration of 32 μM) for 24 hours. […] Cells were detached by Accutase treatment for 20 minutes and counted using a MUSE® Count and Viability Assay Kit and cytometer (Emd millipore).

Peptide text beside a SMILES is read from it. * marks the point of attachment. Palmitoyl = CCCCCCCCCCCCCCCC(=O)*

On to `CCCCCCCCCCCCCCCC(=O)N[C@H](C(=O)N[C@H](C(=O)N[C@@H](C)C(=O)N[C@@H](C)C(=O)N[C@@H](CCC(=O)O)C(=O)N[C@@H](CCC(=O)O)C(=O)NCC(=O)N[C@@H](CC(=O)O)C(=O)N[C@@H](Cc1c[nH]c2ccccc12)C(=O)N[C@@H](Cc1ccccc1)C(=O)N[C@@H](CCCCN)C(=O)N[C@@H](C)C(=O)N[C@@H](Cc1ccccc1)C(=O)N[C@@H](Cc1ccc(O)cc1)C(=O)N[C@@H](CC(=O)O)C(=O)N[C@@H](CCCCN)C(=O)N[C@H](C(=O)N[C@@H](C)C(=O)N[C@@H](CCC(=O)O)C(=O)N[C@@H](CCCCN)C(=O)N[C@@H](Cc1ccccc1)C(=O)N[C@@H](CCCCN)C(=O)N[C@@H](CCC(=O)O)C(=O)N[C@@H](C)C(=O)N[C@@H](Cc1ccccc1)C(N)=O)C(C)C)C(C)C)C(C)C` [ApoA1 PA] (Palmitoyl-VVAAEEGDWFKAFYDKVAEKFKEAF-NH2), for which the “atherosclerosis progression in comparison to the PBS control” value in data set [1] is “significantly decreased”.
In data set [2], “10% MMP-Ac2-26 PA: co-assembly of 10 mol % MMP-Ac2-26 PA, 50 mol % E2 filler PA, and 40% ApoA1 PA (VVAAEEGGGPQGIWGQGKAMVSEFLKQAWFIENEEQEYVQTVK)” returned a median nanofiber length of 159 nm. The “critical aggregation concentration (CAC)” value in data set [3] is approximately 32 µM. Further, the J774.2 macrophage viability result in data set [4] was “No significant differences”.
